Measured values as given in the supplement of paper PMC9170038.

Test system: MS2 coat protein
Assay: apparent KD of MS2 coat protein; designed switch direction (-1 OFF switch, 1 ON switch): -1; higher = weaker reporter binding
Procedure, shortened: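 Normalised cluster fluorescence was curve-fitted, and each design's median over clusters is its apparent KD. Before this, SNAP-549-labelled MS2 coat protein was titrated from 0.7 or 1.5 nM, doubling to 3 µM, over RNA switches transcribed on Illumina chips by stalled E. coli RNA polymerase. Titrations had no input, 200 uM small-molecule ligand, or an oligonucleotide input, and steps lasted 0.8–1.5 h (lowest) to 10–20 min (highest).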

[1] = input ligand: microRNA oligo, concentration not stated
[2] = Eterna round: R95, input ligand: FMN 200 uM
[3] = Eterna round: R95, input ligand: microRNA oligo, concentration not stated
[4] = Eterna round: R95, input ligand: none

Sequence: UGUUGUUACGCAGGAUAUGAGGAUCACCCAUAUAAGGAUAUCGAAAGAGAAGGUCUGAGGAUUACCCAGAAGGGCGGGUUAACA [pwkr exNG2 2xF5 2xFMN.29] (Eterna round: R96, puzzle: Exclusion NG 2)
- apparent KD of MS2 coat protein (input ligand: FMN 200 uM): 0.227 µM
- apparent KD of MS2 coat protein [1]: 0.0653 µM
- apparent KD of MS2 coat protein (input ligand: none): 0.115 µM

Sequence: CCUUAGGGAGGAUAUACAUGAGGAUCACCCAUGUACCGCGGCGCGUUCACACGGGUGGGUAGAAGGCCCUCACU [Colors] (Eterna round: R97, puzzle: Exclusion 3)
- apparent KD of MS2 coat protein (input ligand: FMN 200 uM): 0.463 µM
- apparent KD of MS2 coat protein (input ligand: none): 0.54 µM

Sequence: GAUUAUGCAAGCUUUCGGGACAUGAGGAUCACCCAUGUUCGUCUUAUUGAUCUAGGUACGCUGACGUACCUAGAUCU [JL-sv1-2.33 Brourd mod] (puzzle: Sensor v3, turn-off variant 1)
- apparent KD of MS2 coat protein [2]: 0.017 µM
- apparent KD of MS2 coat protein [3]: 0.0652 µM

Sequence: CCUUGACAUGAGGAUCACCCAUGUUAGGAUAUAACAUUUGACACUACAGUAUGAAGUGUUAGAAGGGAUAUGGG [-22.5, -21 kcal, A 32%] (Eterna round: R97, puzzle: Exclusion 1)
- apparent KD of MS2 coat protein (input ligand: FMN 200 uM): 0.0394 µM
- apparent KD of MS2 coat protein (input ligand: none): 0.0298 µM

Sequence: AAAUAGGCAGGAUAUACAUGAGGAUCACCCAUGUGCCUAUGAAAGGUAAUUUUGAAAGGUAGAAGGGCCUAAAA [ChP 13.04.2015 #4] (puzzle: Exclusion 3)
- apparent KD of MS2 coat protein [3]: 0.0101 µM

Sequence: UCUUCACAUGAGGAUCACCCAUGUGAGGAUAUGGAUUCGCUGGCCGUAGCCAGUGGAUCCAGAAGGCGCGUGAU [JL-ex1-4.23] (Eterna round: R97, puzzle: Exclusion 1)
- apparent KD of MS2 coat protein (input ligand: FMN 200 uM): 0.065 µM
- apparent KD of MS2 coat protein (input ligand: none): 0.074 µM

Sequence: UUUUAACAAGCGAGAUCCUACAUGAGGAUCACCCAUGUAUGUCAUGGUUUCCAUGGUCUUUUUGCUCGUCUUGUGUG [jl TITIN mod 7] (Eterna round: R97, puzzle: Sensor, turn-off variant 1)
- apparent KD of MS2 coat protein (input ligand: FMN 200 uM): 0.0409 µM
- apparent KD of MS2 coat protein (input ligand: none): 0.0441 µM

Sequence: AAAAAGACAGGAUAUACAUGAGGAUCACCCAUGUGAAACAAAAUAAAAUAAAAUAAAAGUAGAAGGGUCAAAAA [Exclusion 3 #2] (puzzle: Exclusion 3)
- apparent KD of MS2 coat protein [2]: 0.0338 µM
- apparent KD of MS2 coat protein [3]: 0.0319 µM
- apparent KD of MS2 coat protein [4]: 0.0317 µM

Sequence: CAGUACUGAGGAUAUACAUGAGGAUCACCCAUGUAAUAAGGUUAGGAAACUAACCUAUGUAGAAGGCAGUACUG [Eli x3 4.07] (Eterna round: R97, puzzle: Exclusion 3)
- apparent KD of MS2 coat protein (input ligand: FMN 200 uM): 0.0132 µM
- apparent KD of MS2 coat protein (input ligand: none): 0.0147 µM

Sequence: UCAAGACAUGAGGAUCACCCAUGUCAGGAUAUCUAGGUUCGCUAUUUCAUUGUUAACGAGAGAAGGGACAUGAU [EX1 C.13] (Eterna round: R97, puzzle: Exclusion 1)
- apparent KD of MS2 coat protein (input ligand: FMN 200 uM): 0.0229 µM
- apparent KD of MS2 coat protein (input ligand: none): 0.018 µM

Sequence: GCCAGAGCAGGAUAUUCAGUAUCACACAUGAGGAUCACCCAUGUCCAGCGAAAGCUGGAGGGAGAAGGGCUCUGGC [Fiskers Ex 5 - 13] (puzzle: Exclusion 5)
- apparent KD of MS2 coat protein [2]: 0.0408 µM
- apparent KD of MS2 coat protein [3]: 0.108 µM
- apparent KD of MS2 coat protein [4]: 0.298 µM

Sequence: GAAAACGUAGGAUAUACGAAAAAAAAGGGUAGAAAAAAAACACAUGAGGAUCACCCAUGUAGAAGGACGAAAAG [salish99_ex2_r3_094] (puzzle: Exclusion 2)
- apparent KD of MS2 coat protein [2]: 0.0663 µM
- apparent KD of MS2 coat protein [3]: 0.0389 µM
- apparent KD of MS2 coat protein [4]: 0.0554 µM

Sequence: GAGCUGUGAGGAUAUACAUGAGGAUCACCCAUGUUAAGGAAGUGGUGAAUAAUUUAGUGUAGAAGGCACUUAUU [JR_Ex3_Sub023] (Eterna round: R97, puzzle: Exclusion 3)
- apparent KD of MS2 coat protein (input ligand: FMN 200 uM): 0.53 µM
- apparent KD of MS2 coat protein (input ligand: none): 0.116 µM

Sequence: GGUACUCAAAGAGUACCAAUACGAACAUGAGGAUCACCCAUGUAGGAUAUGCUACUCAAAGAGUAGCAGAAGGACGUGUACCUU [Far Half Aptamer v1] (Eterna round: R96, puzzle: Exclusion NG 3)
- apparent KD of MS2 coat protein [1]: 0.0185 µM

Sequence: UUUUUAUAUGAAGGAUAUACUUAACAUGAGGAUCACCCAUGUGGUGUUGUGAGUGAGUGAGUUUAGUAGAAGGUCAAGUAUUUA [JMF's solution 41] (Eterna round: R96, puzzle: Exclusion NG 2)
- apparent KD of MS2 coat protein (input ligand: FMN 200 uM): 0.663 µM
- apparent KD of MS2 coat protein [1]: 0.527 µM
- apparent KD of MS2 coat protein (input ligand: none): 0.38 µM

Sequence: GUAGAGUCAGGAUAUACAAGAUCGAUAGAUCAAAGACCCAUACAUGAGGAUCACCCAUGUAGAAGGGACUCUAC [Mat - Exclusion 2 - Eli Mod - D11] (Eterna round: R97, puzzle: Exclusion 2)
- apparent KD of MS2 coat protein (input ligand: FMN 200 uM): 0.023 µM
- apparent KD of MS2 coat protein (input ligand: none): 0.0187 µM

Sequence: GCCUCACUUGAGGAUCACCCAAGUCAGGAUAUUUGAAAGCAAGCCUAAAACACGCGUAAAAGAAGGGACUUGAA [Armare] (Eterna round: R97, puzzle: Exclusion 1)
- apparent KD of MS2 coat protein (input ligand: FMN 200 uM): 0.0303 µM
- apparent KD of MS2 coat protein (input ligand: none): 0.0209 µM

Sequence: UAAAGUCAAGGAUAUGGAAGUCCAAACAUGAGGAUCACCCAUGUAAACACAUUGGGAAGCCCAGAAGGUGGCCGUA [Eternabot (L2) Solution 31] (Eterna round: R97, puzzle: Exclusion 5)
- apparent KD of MS2 coat protein (input ligand: FMN 200 uM): 0.0764 µM
- apparent KD of MS2 coat protein (input ligand: none): 0.204 µM

Sequence: UAUUGGCUAGGAUAUCCGGCUGGCGACAUGAGGAUCACCCAUGUGGACUCUGGUUGUCUUGGAGAAGGAGCAUGCG [EX5 B.19] (Eterna round: R97, puzzle: Exclusion 5)
- apparent KD of MS2 coat protein (input ligand: FMN 200 uM): 0.206 µM
- apparent KD of MS2 coat protein (input ligand: none): 0.138 µM

Sequence: GAUUGACAUGAGGAUCACCCAUGUGAGGAUAUCGGCCGGACCUUGUUAGCUUCCAUCGCGAGAAGGUACAUAGG [Exclusion 1 V34] (puzzle: Exclusion 1)
- apparent KD of MS2 coat protein [3]: 0.0169 µM

Sequence: AGAUGCUCGAGUCGACAUGAGGAUCACCCAUGUACAGUUAGUGAGGAUAUCUGAGACACAUAGUAGGAGAAGGCGCGAACGUGA [Ex NG3 #14] (Eterna round: R96, puzzle: Exclusion NG 3)
- apparent KD of MS2 coat protein [1]: 0.0586 µM

Sequence: GAUACACAUGAGGAUCACCCAUGUUAGGAUAUUAGCGGGAAAGCUGUCAAAACGCCGAUGAGAAGGAACAGGAG [Excls1-IX] (puzzle: Exclusion 1)
- apparent KD of MS2 coat protein [3]: 0.0319 µM

Sequence: UUUUUGGUAGGAUAUACAUGAGGAUCACCCAUGUCCCACCCGUUACCUAUGACCAUAUGUAGAAGGACCAUUUC [Exy#11] (Eterna round: R97, puzzle: Exclusion 3)
- apparent KD of MS2 coat protein (input ligand: FMN 200 uM): 0.0246 µM
- apparent KD of MS2 coat protein (input ligand: none): 0.0213 µM

Sequence: AGUGGGUCAGGAUAUUCUAUUAAUUACAUGAGGAUCACCCAUGUGAAUGGACAAGGGUGUGAAGAAGGGACUUGCG [Omei Ex5 A17d] (Eterna round: R97, puzzle: Exclusion 5)
- apparent KD of MS2 coat protein (input ligand: FMN 200 uM): 0.324 µM
- apparent KD of MS2 coat protein (input ligand: none): 0.546 µM

Sequence: UGUUGGCGAGGAUAUACAUGAGGAUCACCCAUGUGAGAGAAAAAAGUGAGGAAGAAAAGUAGAAGGCGCUGACA [salish99_ex3_r3_045] (puzzle: Exclusion 3)
- apparent KD of MS2 coat protein [2]: 0.371 µM
- apparent KD of MS2 coat protein [3]: 0.0425 µM
- apparent KD of MS2 coat protein [4]: 0.0484 µM

Sequence: ACAUGAGGAUCACCCAUGUGAAAACAAUGGCUGACUUAGAGAUAGGAUAUAUGUGCAUAUCAAACAUAGAAGGGUCAUUACUGG [Deportation 89 - Jieux - Exclusion NG 3] (Eterna round: R96, puzzle: Exclusion NG 3)
- apparent KD of MS2 coat protein (input ligand: FMN 200 uM): 0.0379 µM
- apparent KD of MS2 coat protein [1]: 0.0345 µM
- apparent KD of MS2 coat protein (input ligand: none): 0.0393 µM
